Results on 3 molecules are retold here after article PMC3834070.

Assay [1] has as its target T1, FpPG.A274T (Fusarium phyllophilum) (UniProt Q07181).
T1 sequence: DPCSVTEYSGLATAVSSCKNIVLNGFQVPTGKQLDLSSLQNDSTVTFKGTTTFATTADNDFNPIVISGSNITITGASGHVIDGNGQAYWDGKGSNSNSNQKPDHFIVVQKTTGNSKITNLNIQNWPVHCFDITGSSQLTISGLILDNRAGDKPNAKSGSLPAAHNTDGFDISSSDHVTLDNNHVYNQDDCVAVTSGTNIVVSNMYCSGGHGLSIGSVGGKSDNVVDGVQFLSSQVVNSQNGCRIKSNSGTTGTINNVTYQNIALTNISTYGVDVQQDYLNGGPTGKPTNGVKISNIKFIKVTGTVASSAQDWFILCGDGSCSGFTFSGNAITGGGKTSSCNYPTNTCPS

For assay [2], the target named is T2, FpPG.S120N-N121K-S122D (Fusarium phyllophilum) (UniProt Q07181).
T2 sequence: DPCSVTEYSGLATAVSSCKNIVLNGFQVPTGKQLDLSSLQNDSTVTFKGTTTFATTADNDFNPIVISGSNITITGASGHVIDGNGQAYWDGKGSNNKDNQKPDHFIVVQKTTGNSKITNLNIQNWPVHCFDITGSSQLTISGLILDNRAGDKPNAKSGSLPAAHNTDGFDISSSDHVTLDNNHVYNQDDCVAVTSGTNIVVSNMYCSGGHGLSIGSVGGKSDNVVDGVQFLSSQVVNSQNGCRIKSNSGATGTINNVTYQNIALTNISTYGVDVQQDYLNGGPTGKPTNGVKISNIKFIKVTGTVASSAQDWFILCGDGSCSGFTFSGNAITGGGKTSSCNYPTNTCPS

Assay [3] has as its target T3, polygalacturonase of Fusarium phyllophilum (FpPG) (Fusarium phyllophilum) (UniProt Q07181).
T3 sequence: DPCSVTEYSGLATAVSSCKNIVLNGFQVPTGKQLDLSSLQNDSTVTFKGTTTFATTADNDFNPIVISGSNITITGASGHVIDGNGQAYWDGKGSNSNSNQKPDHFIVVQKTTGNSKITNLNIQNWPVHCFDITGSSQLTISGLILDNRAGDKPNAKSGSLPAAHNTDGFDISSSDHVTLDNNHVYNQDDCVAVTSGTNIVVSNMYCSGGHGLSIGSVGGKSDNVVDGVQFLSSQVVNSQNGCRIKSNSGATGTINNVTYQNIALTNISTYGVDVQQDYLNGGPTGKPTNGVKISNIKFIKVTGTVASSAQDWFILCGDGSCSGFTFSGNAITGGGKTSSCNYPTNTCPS

In assay [4] the target is T4, FpPG.K310T (Fusarium phyllophilum) (UniProt Q07181).
T4 sequence: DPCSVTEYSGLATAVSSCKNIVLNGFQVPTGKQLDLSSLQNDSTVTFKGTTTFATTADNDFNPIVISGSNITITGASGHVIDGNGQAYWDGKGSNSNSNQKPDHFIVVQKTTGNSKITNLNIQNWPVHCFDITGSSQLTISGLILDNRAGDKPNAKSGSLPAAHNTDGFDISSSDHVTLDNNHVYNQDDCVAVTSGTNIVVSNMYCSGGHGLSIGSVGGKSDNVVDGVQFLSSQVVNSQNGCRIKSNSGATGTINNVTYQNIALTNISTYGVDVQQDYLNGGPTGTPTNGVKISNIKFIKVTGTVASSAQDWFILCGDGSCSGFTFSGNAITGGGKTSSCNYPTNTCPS

For assay [5], the target named is T5, FpPG.L303E (Fusarium phyllophilum) (UniProt Q07181).
T5 sequence: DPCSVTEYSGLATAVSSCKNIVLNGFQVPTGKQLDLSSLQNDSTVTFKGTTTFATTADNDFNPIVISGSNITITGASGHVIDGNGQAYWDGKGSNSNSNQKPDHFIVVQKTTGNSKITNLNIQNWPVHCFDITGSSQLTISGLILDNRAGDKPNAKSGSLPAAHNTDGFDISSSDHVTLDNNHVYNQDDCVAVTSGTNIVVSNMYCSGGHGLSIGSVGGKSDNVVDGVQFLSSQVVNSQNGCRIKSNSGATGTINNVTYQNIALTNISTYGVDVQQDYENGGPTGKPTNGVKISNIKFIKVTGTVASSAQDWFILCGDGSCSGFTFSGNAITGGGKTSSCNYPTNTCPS

Assay [6] has as its target Polygalacturonase 1 of Colletotrichum lupini (CluPG1) strain SHK78813 (Colletotrichum lupini).
Assay [7] addresses T6, FpPG.S363K (Fusarium phyllophilum) (UniProt Q07181).
T6 sequence: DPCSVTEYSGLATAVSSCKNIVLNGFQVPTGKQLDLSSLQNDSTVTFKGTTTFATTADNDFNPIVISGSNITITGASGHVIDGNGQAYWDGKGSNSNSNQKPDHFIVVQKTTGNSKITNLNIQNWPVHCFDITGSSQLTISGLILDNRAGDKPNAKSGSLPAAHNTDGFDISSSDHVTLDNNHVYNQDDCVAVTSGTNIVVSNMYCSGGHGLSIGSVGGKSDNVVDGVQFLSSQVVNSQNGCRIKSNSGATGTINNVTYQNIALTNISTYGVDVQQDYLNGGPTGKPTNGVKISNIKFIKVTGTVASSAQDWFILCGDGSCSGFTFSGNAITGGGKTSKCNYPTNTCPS

B1: PG-inhibiting protein 2 of Phaseolus vulgaris pv Pinto (PvPGIP2) (natural protein)
chain: ELCNPQDKQALLQIKKDLGNPTTLSSWLPTTDCCNRTWLGVLCDTDTQTYRVNNLDLSGLNLPKPYPIPSSLANLPYLNFLYIGGINNLVGPIPPAIAKLTQLHYLYITHTNVSGAIPDFLSQIKTLVTLDFSYNALSGTLPPSISSLPNLVGITFDGNRISGAIPDSYGSFSKLFTSMTISRNRLTGKIPPTFANLNLAFVDLSRNMLEGDASVLFGSDKNTQKIHLAKNSLAFDLGKVGLSKNLNGLDLRNNRIYGTLPQGLTQLKFLHSLNVSFNNLCGEIPQGGNLQRFDVSAYANNKCLCGSPLPACT
Take B1: the fold loss of inhibition by PvPGIP2 against wild type FpPG, agar diffusion assay (Figure 5A) in assay [1] is 150 fold. For the same molecule, the fold reduction of the efficiency of inhibition by PvPGIP2 against wild type FpPG, agar diffusion assay (Figure 5A) in assay [2] is 25 fold. In addition, the amount of PGIP causing 50% inhibition of one agarose diffusion unit of the PG (agar diffusion assay) in assay [3] came to 2000 pg; in assay [4], 2000 pg; in assay [5] it was 2000 pg; in assay [6], 2500 pg; in assay [7], 2000 pg.

B2: PvPGIP2.Q224K (natural protein)
chain: ELCNPQDKQALLQIKKDLGNPTTLSSWLPTTDCCNRTWLGVLCDTDTQTYRVNNLDLSGLNLPKPYPIPSSLANLPYLNFLYIGGINNLVGPIPPAIAKLTQLHYLYITHTNVSGAIPDFLSQIKTLVTLDFSYNALSGTLPPSISSLPNLVGITFDGNRISGAIPDSYGSFSKLFTSMTISRNRLTGKIPPTFANLNLAFVDLSRNMLEGDASVLFGSDKNTKKIHLAKNSLAFDLGKVGLSKNLNGLDLRNNRIYGTLPQGLTQLKFLHSLNVSFNNLCGEIPQGGNLQRFDVSAYANNKCLCGSPLPACT
For the molecule B2, the amount of PGIP causing 50% inhibition of one agarose diffusion unit of the PG (agar diffusion assay); ∞ indicates > 1500 ng in assay [3], in assay [4] and in assay [7] was greater than 1.5e+06 pg throughout. The amount of PGIP causing 50% inhibition of one agarose diffusion unit of the PG (agar diffusion assay) in assay [5] amounted to 20000 pg; in assay [6] it was 2500 pg.

B3: PvPGIP2.Q224E (natural protein)
chain: ELCNPQDKQALLQIKKDLGNPTTLSSWLPTTDCCNRTWLGVLCDTDTQTYRVNNLDLSGLNLPKPYPIPSSLANLPYLNFLYIGGINNLVGPIPPAIAKLTQLHYLYITHTNVSGAIPDFLSQIKTLVTLDFSYNALSGTLPPSISSLPNLVGITFDGNRISGAIPDSYGSFSKLFTSMTISRNRLTGKIPPTFANLNLAFVDLSRNMLEGDASVLFGSDKNTEKIHLAKNSLAFDLGKVGLSKNLNGLDLRNNRIYGTLPQGLTQLKFLHSLNVSFNNLCGEIPQGGNLQRFDVSAYANNKCLCGSPLPACT
With B3, the amount of PGIP causing 50% inhibition of one agarose diffusion unit of the PG (agar diffusion assay) amounted to 2000 pg in assay [3]; 2000 pg in assay [4]; 2000 pg in assay [5]; 1100 pg in assay [6]; 2000 pg in assay [7].
